Common to all, as to experiment: cell-based or functional assay
Experiment [1] addresses human MMP9 (i.e. activated MMP9), catalytically active caspase-cleaved recombinant MMP9 (human, UniProt P14780 107-707).
Experiment [2] has as its target recombinant human proMMP9 (full length, latent form) (human, UniProt P14780 20-707).
For experiment [3], the target named is mouse active MMP9 (mouse, UniProt P41245 108-730, limits assumed).
Experiment [4] addresses mouse proMMP9 (mouse, UniProt P41245 20-730).
Experiment [5] has as its target Cynomologus monkey (cyno) proMMP9 (Cynomologus monkey).
In experiment [6] the target is rat proMMP9 (rat, UniProt P50282 20-708).
Sequence of rat proMMP9 (P50282 20-708): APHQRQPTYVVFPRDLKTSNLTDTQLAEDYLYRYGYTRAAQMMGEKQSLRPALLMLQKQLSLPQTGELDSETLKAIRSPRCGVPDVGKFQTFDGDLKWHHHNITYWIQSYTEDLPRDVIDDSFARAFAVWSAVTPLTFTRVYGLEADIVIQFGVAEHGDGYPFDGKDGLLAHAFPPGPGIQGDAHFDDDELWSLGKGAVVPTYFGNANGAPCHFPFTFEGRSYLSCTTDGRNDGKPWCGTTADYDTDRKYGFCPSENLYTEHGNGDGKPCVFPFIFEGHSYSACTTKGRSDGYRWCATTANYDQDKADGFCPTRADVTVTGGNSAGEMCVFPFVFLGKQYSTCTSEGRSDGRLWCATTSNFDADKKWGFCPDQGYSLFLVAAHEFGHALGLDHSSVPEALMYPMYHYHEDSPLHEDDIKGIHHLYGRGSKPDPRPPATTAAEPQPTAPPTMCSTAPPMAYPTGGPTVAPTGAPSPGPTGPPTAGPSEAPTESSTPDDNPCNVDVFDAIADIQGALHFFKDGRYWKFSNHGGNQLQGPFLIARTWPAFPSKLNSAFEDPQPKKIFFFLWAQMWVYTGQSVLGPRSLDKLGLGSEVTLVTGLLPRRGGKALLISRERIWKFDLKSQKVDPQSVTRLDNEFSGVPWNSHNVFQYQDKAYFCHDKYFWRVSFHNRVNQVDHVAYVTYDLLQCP

Sequence of mouse proMMP9 (P41245 20-730): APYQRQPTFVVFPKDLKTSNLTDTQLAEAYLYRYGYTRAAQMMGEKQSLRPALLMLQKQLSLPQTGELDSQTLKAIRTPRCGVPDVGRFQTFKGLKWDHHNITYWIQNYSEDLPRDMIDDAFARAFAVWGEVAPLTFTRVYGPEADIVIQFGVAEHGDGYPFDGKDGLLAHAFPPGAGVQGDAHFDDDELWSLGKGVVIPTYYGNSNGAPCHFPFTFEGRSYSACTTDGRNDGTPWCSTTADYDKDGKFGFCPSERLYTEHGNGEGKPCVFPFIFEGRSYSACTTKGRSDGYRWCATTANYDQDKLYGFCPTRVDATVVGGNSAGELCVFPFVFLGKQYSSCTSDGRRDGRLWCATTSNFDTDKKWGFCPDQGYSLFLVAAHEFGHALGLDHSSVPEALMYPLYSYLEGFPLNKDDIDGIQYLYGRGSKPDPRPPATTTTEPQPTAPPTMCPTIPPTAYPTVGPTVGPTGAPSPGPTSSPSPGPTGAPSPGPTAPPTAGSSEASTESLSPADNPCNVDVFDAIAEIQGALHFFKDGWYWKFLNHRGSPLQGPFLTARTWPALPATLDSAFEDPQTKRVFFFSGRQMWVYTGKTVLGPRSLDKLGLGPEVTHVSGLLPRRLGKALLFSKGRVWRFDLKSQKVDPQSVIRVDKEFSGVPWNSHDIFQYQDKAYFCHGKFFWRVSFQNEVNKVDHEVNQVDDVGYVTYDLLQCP
Sequence of mouse active MMP9 (P41245 108-730 limits assumed): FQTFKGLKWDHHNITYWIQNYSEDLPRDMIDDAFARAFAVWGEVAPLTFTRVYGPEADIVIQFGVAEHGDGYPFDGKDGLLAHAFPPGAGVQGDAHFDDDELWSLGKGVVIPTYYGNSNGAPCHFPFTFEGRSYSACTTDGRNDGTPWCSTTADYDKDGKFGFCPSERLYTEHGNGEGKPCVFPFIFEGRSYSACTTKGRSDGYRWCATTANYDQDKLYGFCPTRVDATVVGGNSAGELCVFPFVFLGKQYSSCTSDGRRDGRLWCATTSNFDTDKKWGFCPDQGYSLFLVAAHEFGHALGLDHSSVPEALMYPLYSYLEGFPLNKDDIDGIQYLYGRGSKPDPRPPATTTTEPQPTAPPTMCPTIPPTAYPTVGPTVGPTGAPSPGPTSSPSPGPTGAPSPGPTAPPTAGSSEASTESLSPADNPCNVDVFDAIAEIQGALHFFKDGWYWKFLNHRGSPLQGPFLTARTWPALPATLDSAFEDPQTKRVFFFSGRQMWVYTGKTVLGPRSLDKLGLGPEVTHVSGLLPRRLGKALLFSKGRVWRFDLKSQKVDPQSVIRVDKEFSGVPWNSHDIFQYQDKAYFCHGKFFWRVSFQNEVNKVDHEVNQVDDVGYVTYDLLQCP
Sequence of human MMP9 (i.e. activated MMP9), catalytically active caspase-cleaved recombinant MMP9 (P14780 107-707): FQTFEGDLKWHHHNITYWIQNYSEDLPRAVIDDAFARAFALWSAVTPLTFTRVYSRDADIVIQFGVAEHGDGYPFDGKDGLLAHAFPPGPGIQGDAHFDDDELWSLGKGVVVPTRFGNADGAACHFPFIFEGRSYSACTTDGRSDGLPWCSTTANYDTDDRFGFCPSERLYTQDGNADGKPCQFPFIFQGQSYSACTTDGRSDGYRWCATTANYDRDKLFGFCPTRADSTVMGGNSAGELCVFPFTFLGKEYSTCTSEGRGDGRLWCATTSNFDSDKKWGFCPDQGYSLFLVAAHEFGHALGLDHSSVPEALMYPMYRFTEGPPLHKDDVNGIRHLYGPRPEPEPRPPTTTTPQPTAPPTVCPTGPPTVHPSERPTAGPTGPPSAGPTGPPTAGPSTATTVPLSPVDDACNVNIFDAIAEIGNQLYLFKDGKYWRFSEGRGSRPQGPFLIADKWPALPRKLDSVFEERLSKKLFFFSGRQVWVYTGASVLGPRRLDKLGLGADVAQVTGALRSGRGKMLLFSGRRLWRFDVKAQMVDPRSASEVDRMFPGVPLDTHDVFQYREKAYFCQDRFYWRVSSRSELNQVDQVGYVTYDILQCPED
Sequence of recombinant human proMMP9 (full length, latent form) (P14780 20-707): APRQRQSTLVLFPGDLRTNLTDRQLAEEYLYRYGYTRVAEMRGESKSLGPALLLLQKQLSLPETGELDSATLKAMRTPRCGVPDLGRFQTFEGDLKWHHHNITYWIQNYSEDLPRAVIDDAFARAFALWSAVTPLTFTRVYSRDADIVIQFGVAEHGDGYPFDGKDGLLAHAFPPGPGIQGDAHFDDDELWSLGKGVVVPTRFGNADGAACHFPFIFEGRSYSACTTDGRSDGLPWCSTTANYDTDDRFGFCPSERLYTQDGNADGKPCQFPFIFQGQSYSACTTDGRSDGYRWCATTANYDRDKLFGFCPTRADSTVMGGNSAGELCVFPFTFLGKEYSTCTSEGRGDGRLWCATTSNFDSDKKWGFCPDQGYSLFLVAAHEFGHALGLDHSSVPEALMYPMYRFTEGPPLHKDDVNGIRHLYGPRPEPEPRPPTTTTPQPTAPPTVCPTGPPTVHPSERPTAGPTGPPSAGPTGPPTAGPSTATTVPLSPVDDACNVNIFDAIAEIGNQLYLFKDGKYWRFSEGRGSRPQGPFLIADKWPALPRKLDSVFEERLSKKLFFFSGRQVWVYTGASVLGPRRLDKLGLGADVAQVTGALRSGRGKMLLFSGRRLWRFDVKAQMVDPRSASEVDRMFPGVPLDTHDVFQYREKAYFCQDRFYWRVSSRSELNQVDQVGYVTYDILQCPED

B1: F20-VH-GL1/B03-VL-GL1c (antibody, human IgG4, V domains shown)
VH: EVQLVESGGGLVQPGRSLRLSCAASGFTFNDYPMHWVRQAPGKGLEWVSGISSNSGSVGYADSVKGRFTISRDNAKNSLYLQMNSLRAEDTALYYCARDKIYYGSGSYDFYYYYGMDVWGQGTTVTVSS
VL: SSELTQDPAVSVALGQTVRITCQGDSLRSYYASWYQQKPGQAPVVVIYGKNNRPSGIPDRFSGSSSGNTVSLTITGAQAEDEADYYCQSRDNIGNHRVVLFGGGTKLTVL
As for B1, in experiment [1], the “Efficacy, DQ-gelatin digestion, MMP9 assay” value is 100% and the “IC50 (nM), DQ-gelatin digestion, MMP9 assay” value is 1.92 nM. For the same molecule, in experiment [2], the “Efficacy, DQ-gelatin digestion, MMP3/MMP9 assay” value (“Efficacy … MMP3/MMP9 assay” below) was 100% and the “IC50 (nM), DQ-gelatin digestion, MMP3/MMP9 assay” value (“IC50 (nM) … MMP3/MMP9 assay” below) came out at 9.05 nM. Moreover, in experiment [3], the “Efficacy, MMP9 gelatin assay” value was 100% and the “IC50 (nM), MMP9 gelatin assay” value turned out to be 333 nM. In experiment [4], the “Efficacy, MMP3/MMP9 gelatin assay” value was 25% and the “IC50 (nM), MMP3/MMP9 gelatin assay” value came out at 38.8 nM. Further, in experiment [5], the “Efficacy, MMP3/MMP9 gelatin assay” value was found to be 100% and the “IC50 (nM), MMP3/MMP9 gelatin assay” value is 3.85 nM. Further, in experiment [6], the “Efficacy, MMP3/MMP9 gelatin assay” value turned out to be 100% and the “IC50 (nM), MMP3/MMP9 gelatin assay” value was determined as 4.99 nM.

B2: F20-VH-GL1-V1-V9/B08-VL-GL6c (antibody, human IgG4 S228P, V domains shown)
VH: EVQLVESGGGLVQPGRSLRLSCAASGFTFNDYPMHWVRQAPGKGLEWVSGISSQSGSVGYAESVKGRFTISRDNAKNSLYLQMNSLRAEDTALYYCARDKIYYGSGSYDFYYYYGMDVWGQGTTVTVSS
VL: QSALTQPASVSGSPGQSITISCTGTSNDVGAYNRVSWYQQHPGKAPKLMIYGVSNRPSGVSNRFSGSKSGNTASLTISGLQAEDEADFYCTSYSSSTTSYVVFGGGTKVTVL
On to B2, for which, in experiment [1], the “Efficacy, DQ-gelatin digestion, MMP9 assay” value turned out to be 100% and the “IC50 (nM), DQ-gelatin digestion, MMP9 assay” value stood at 2.64 nM. Moreover, in experiment [2], the “Efficacy … MMP3/MMP9 assay” value was 100% and the “IC50 (nM) … MMP3/MMP9 assay” value worked out at 23.7 nM. In addition, in experiment [3], the “Efficacy, MMP9 gelatin assay” value turned out to be 100% and the “IC50 (nM), MMP9 gelatin assay” value was found to be 1.2 nM. For the same molecule, in experiment [4], the “Efficacy, MMP3/MMP9 gelatin assay” value came to 100% and the “IC50 (nM), MMP3/MMP9 gelatin assay” value is 7.69 nM. Moreover, in experiment [5], the “Efficacy, MMP3/MMP9 gelatin assay” value turned out to be 100% and the “IC50 (nM), MMP3/MMP9 gelatin assay” value was determined as 15.8 nM. In addition, in experiment [6], the “Efficacy, MMP3/MMP9 gelatin assay” value worked out at 100% and the “IC50 (nM), MMP3/MMP9 gelatin assay” value came out at 7.77 nM.

B3: F20-VH-GL1-V4-V9-V14/B03-VL-GL1c (antibody, human IgG4 S228P, V domains shown)
VH: EVQLVESGGGLVQPGRSLRLSCAASGFTFNDYPMHWVRQAPGKGLEWVSGISSRSGSVGYAESVKGRFTISRDNAKNSLYLQMNSLRAEDTALYYCARDKIYYGSGSYDFYYYYGIDVWGQGTTVTVSS
VL: SSELTQDPAVSVALGQTVRITCQGDSLRSYYASWYQQKPGQAPVVVIYGKNNRPSGIPDRFSGSSSGNTVSLTITGAQAEDEADYYCQSRDNIGNHRVVLFGGGTKLTVL
For the molecule B3, in experiment [1], the “Efficacy, DQ-gelatin digestion, MMP9 assay” value amounted to 100% and the “IC50 (nM), DQ-gelatin digestion, MMP9 assay” value is 1.3 nM. Besides, in experiment [2], the “Efficacy … MMP3/MMP9 assay” value was 100% and the “IC50 (nM) … MMP3/MMP9 assay” value is 5.48 nM. Further, in experiment [3], the “Efficacy, MMP9 gelatin assay” value amounted to 100% and the “IC50 (nM), MMP9 gelatin assay” value came to 164 nM. Further, in experiment [4], the “Efficacy, MMP3/MMP9 gelatin assay” value was 100% and the “IC50 (nM), MMP3/MMP9 gelatin assay” value stood at 462 nM. For the same molecule, in experiment [5], the “Efficacy, MMP3/MMP9 gelatin assay” value came out at 100% and the “IC50 (nM), MMP3/MMP9 gelatin assay” value was determined as 3.75 nM. Further, in experiment [6], the “Efficacy, MMP3/MMP9 gelatin assay” value was 100% and the “IC50 (nM), MMP3/MMP9 gelatin assay” value was 2.83 nM.

B4: F20-VH-GL1-V4-V9-V14/B08-VL-GL6c (antibody, human IgG4 S228P, V domains shown)
VH: EVQLVESGGGLVQPGRSLRLSCAASGFTFNDYPMHWVRQAPGKGLEWVSGISSRSGSVGYAESVKGRFTISRDNAKNSLYLQMNSLRAEDTALYYCARDKIYYGSGSYDFYYYYGIDVWGQGTTVTVSS
VL: QSALTQPASVSGSPGQSITISCTGTSNDVGAYNRVSWYQQHPGKAPKLMIYGVSNRPSGVSNRFSGSKSGNTASLTISGLQAEDEADFYCTSYSSSTTSYVVFGGGTKVTVL
B4: in experiment [1], the “Efficacy, DQ-gelatin digestion, MMP9 assay” value worked out at 100% and the “IC50 (nM), DQ-gelatin digestion, MMP9 assay” value came out at 2.92 nM. Also, in experiment [2], the “Efficacy … MMP3/MMP9 assay” value was 100% and the “IC50 (nM) … MMP3/MMP9 assay” value was 20.4 nM. Moreover, in experiment [3], the “Efficacy, MMP9 gelatin assay” value was 100% and the “IC50 (nM), MMP9 gelatin assay” value amounted to 2.37 nM. In experiment [4], the “Efficacy, MMP3/MMP9 gelatin assay” value worked out at 100% and the “IC50 (nM), MMP3/MMP9 gelatin assay” value came out at 12.7 nM. For the same molecule, in experiment [5], the “Efficacy, MMP3/MMP9 gelatin assay” value was found to be 100% and the “IC50 (nM), MMP3/MMP9 gelatin assay” value came out at 10.8 nM. In addition, in experiment [6], the “Efficacy, MMP3/MMP9 gelatin assay” value came out at 100% and the “IC50 (nM), MMP3/MMP9 gelatin assay” value was determined as 6.19 nM.

B5: F20-VH-GL1/B08-VL-GL6c (antibody, human IgG4, V domains shown)
VH: EVQLVESGGGLVQPGRSLRLSCAASGFTFNDYPMHWVRQAPGKGLEWVSGISSNSGSVGYADSVKGRFTISRDNAKNSLYLQMNSLRAEDTALYYCARDKIYYGSGSYDFYYYYGMDVWGQGTTVTVSS
VL: QSALTQPASVSGSPGQSITISCTGTSNDVGAYNRVSWYQQHPGKAPKLMIYGVSNRPSGVSNRFSGSKSGNTASLTISGLQAEDEADFYCTSYSSSTTSYVVFGGGTKVTVL
For the molecule B5, in experiment [1], the “Efficacy, DQ-gelatin digestion, MMP9 assay” value worked out at 100% and the “IC50 (nM), DQ-gelatin digestion, MMP9 assay” value came to 3.92 nM. Moreover, in experiment [2], the “Efficacy … MMP3/MMP9 assay” value turned out to be 100% and the “IC50 (nM) … MMP3/MMP9 assay” value was found to be 44 nM. Besides, in experiment [3], the “Efficacy, MMP9 gelatin assay” value was found to be 100% and the “IC50 (nM), MMP9 gelatin assay” value was 0.86 nM. In experiment [4], the “Efficacy, MMP3/MMP9 gelatin assay” value was 100% and the “IC50 (nM), MMP3/MMP9 gelatin assay” value turned out to be 7.91 nM. Besides, in experiment [5], the “Efficacy, MMP3/MMP9 gelatin assay” value is 100% and the “IC50 (nM), MMP3/MMP9 gelatin assay” value was determined as 29.9 nM. Further, in experiment [6], the “Efficacy, MMP3/MMP9 gelatin assay” value stood at 100% and the “IC50 (nM), MMP3/MMP9 gelatin assay” value came out at 17.4 nM.

B6: F20-VH-GL1-V1-V9-V14/B03-VL-GL1c (antibody, human IgG4 S228P, V domains shown)
VH: EVQLVESGGGLVQPGRSLRLSCAASGFTFNDYPMHWVRQAPGKGLEWVSGISSQSGSVGYAESVKGRFTISRDNAKNSLYLQMNSLRAEDTALYYCARDKIYYGSGSYDFYYYYGIDVWGQGTTVTVSS
VL: SSELTQDPAVSVALGQTVRITCQGDSLRSYYASWYQQKPGQAPVVVIYGKNNRPSGIPDRFSGSSSGNTVSLTITGAQAEDEADYYCQSRDNIGNHRVVLFGGGTKLTVL
Regarding B6, in experiment [1], the “Efficacy, DQ-gelatin digestion, MMP9 assay” value turned out to be 100% and the “IC50 (nM), DQ-gelatin digestion, MMP9 assay” value was 3.16 nM. For the same molecule, in experiment [2], the “Efficacy … MMP3/MMP9 assay” value turned out to be 100% and the “IC50 (nM) … MMP3/MMP9 assay” value turned out to be 15.2 nM. The “IC50 (nM), MMP9 gelatin assay” value in experiment [3] was greater than 500 nM. In addition, the “IC50 (nM), MMP3/MMP9 gelatin assay” value in experiment [4] is greater than 500 nM. In experiment [5], the “Efficacy, MMP3/MMP9 gelatin assay” value was determined as 100% and the “IC50 (nM), MMP3/MMP9 gelatin assay” value turned out to be 12.5 nM. Further, in experiment [6], the “Efficacy, MMP3/MMP9 gelatin assay” value is 100% and the “IC50 (nM), MMP3/MMP9 gelatin assay” value turned out to be 8.82 nM.

B7: F20-VH-GL1-V1-V9-V14/B08-VL-GL6c (antibody, human IgG4 S228P, V domains shown)
VH: EVQLVESGGGLVQPGRSLRLSCAASGFTFNDYPMHWVRQAPGKGLEWVSGISSQSGSVGYAESVKGRFTISRDNAKNSLYLQMNSLRAEDTALYYCARDKIYYGSGSYDFYYYYGIDVWGQGTTVTVSS
VL: QSALTQPASVSGSPGQSITISCTGTSNDVGAYNRVSWYQQHPGKAPKLMIYGVSNRPSGVSNRFSGSKSGNTASLTISGLQAEDEADFYCTSYSSSTTSYVVFGGGTKVTVL
In the case of B7, in experiment [1], the “Efficacy, DQ-gelatin digestion, MMP9 assay” value turned out to be 100% and the “IC50 (nM), DQ-gelatin digestion, MMP9 assay” value was found to be 3.86 nM. For the same molecule, in experiment [2], the “Efficacy … MMP3/MMP9 assay” value was 100% and the “IC50 (nM) … MMP3/MMP9 assay” value amounted to 38.1 nM. Further, in experiment [3], the “Efficacy, MMP9 gelatin assay” value was 100% and the “IC50 (nM), MMP9 gelatin assay” value amounted to 1.91 nM. Further, in experiment [4], the “Efficacy, MMP3/MMP9 gelatin assay” value was 100% and the “IC50 (nM), MMP3/MMP9 gelatin assay” value amounted to 11.1 nM. In addition, in experiment [5], the “Efficacy, MMP3/MMP9 gelatin assay” value stood at 100% and the “IC50 (nM), MMP3/MMP9 gelatin assay” value worked out at 27.6 nM. Also, in experiment [6], the “Efficacy, MMP3/MMP9 gelatin assay” value is 100% and the “IC50 (nM), MMP3/MMP9 gelatin assay” value is 12.3 nM.

The record behind these values is patent publication US20170233495A1 (CALYPSO BIOTECH, published 2017).
